Experimental data: patent US20240174712A1, “COMPOSITIONS AND METHODS FOR PURIFYING ALPHA-1 ANTITRYPSIN USING PEPTIDE LIGANDS” (North Carolina State University, priority 2022, published 2024)
No end group written: not given here.

How the values were obtained:
[1] = biological target: T1, human AAT (Homo sapiens, UniProt P01009); test: Static binding capacity and affinity of peptide-Toyopearl resins (AAT adsorption isotherms, Langmuir fit); details: pure AAT in PBS at pH 7.4; Langmuir isotherm fit
T1 construct: purchased CSL Behring (King of Prussia, PA, USA)
Procedure: Static binding capacity and affinity of peptide-Toyopearl resins. […] Aliquots of 50 μL of peptide-Toyopearl resin were transferred in a tube, swollen in 20% v/v aqueous methanol, washed in MilliQ water, and finally equilibrated in PBS at pH 7.4. The resin aliquots were individually incubated with 0.5 mL of a solution of AAT at different concentrations (0.1, 0.25, 0.5, 0.75, 1.0, 1.5, 2.0, and 5.0 mg/mL) for 1.5 hrs at room temperature under gentle rotation. After incubation, the resin aliquots were centrifuged and the supernatants collected as unbound (UB) fraction; the resins were also washed with 0.5 mL of PBS for 30 min, and the supernatants were combined with the corresponding UB fractions. These were finally analyzed by Micro BCA Protein Assay kit to determine the concentration C* of unbound AAT in solution at the equilibrium with the resin, from which the amount q of bound AAT per volume of resin was determined by mass balance. The values of q vs. C* were plotted and fit using a Langmuir isotherm (Equation 1) to determine the values of maximum binding capacity (Qmax) and affinity dissociation constant (KD)).
Evaluation of AAT-binding peptides via in vitro and in silico AAT binding studies. […] Toyopearl resin was selected for ligand conjunction owing to its high chemical and mechanical stability as well as low non-specific protein adsorption, which make it an ideal substrate for direct peptide conjugation and protein chromatography.

[2] = biological target: T2, Human Alpha-1 antitrypsin (AAT) (human, UniProt P01009 25-418); test: static adsorption isotherm, pure AAT in PBS pH 7.4, Langmuir fit
T2 construct: Pure AAT in buffer, as used in the isotherm and breakthrough studies; also called α-1 antitrypsin; human AAT
Procedure: Static binding capacity and affinity of peptide-Toyopearl resins. The selected sequences were synthesized on Toyopearl AF-Amino 650 M resin as described herein and evaluated via isotherm binding studies of AAT in non-competitive mode (e.g., pure AAT in PBS at pH 7.4) as described in prior work. Aliquots of 50 μL of peptide-Toyopearl resin were transferred in a tube, swollen in 20% v/v aqueous methanol, washed in MilliQ water, and finally equilibrated in PBS at pH 7.4. The resin aliquots were individually incubated with 0.5 mL of a solution of AAT at different concentrations (0.1, 0.25, 0.5, 0.75, 1.0, 1.5, 2.0, and 5.0 mg/mL) for 1.5 hrs at room temperature under gentle rotation. After incubation, the resin aliquots were centrifuged and the supernatants collected as unbound (UB) fraction; the resins were also washed with 0.5 mL of PBS for 30 min, and the supernatants were combined with the corresponding UB fractions. These were finally analyzed by Micro BCA Protein Assay kit to determine the concentration C* of unbound AAT in solution at the equilibrium with the resin, from which the amount q of bound AAT per volume of resin was determined by mass balance. The values of q vs. C* were plotted and fit using a Langmuir isotherm (Equation 1) to determine the values of maximum binding capacity (Qₘₐₓ) and affinity dissociation constant (KD)).

[3] = biological target: T2, Human Alpha-1 antitrypsin (AAT); test: dynamic binding capacity at 10% breakthrough, PBS pH 7.4, residence time 2 min
Procedure: (§1) Dynamic binding capacity of peptide Toyopearl resins. The dynamic binding capacity at 10% breakthrough (DBC_{10%}, mg of AAT per mL resin) of the selected peptide-Toyopearl resins and the control AAT Select resin was measured. A volume of 0.1 mL of resin was wet packed in a Vici Jour PEEK column, washed with 10 column volumes (CVs) of 20% v/v ethanol, deionized water (3 CVs), and finally equilibrated with 10 CVs of binding buffer. The binding buffers used in this study were (i) 0.15M NaCl in 20 mM Bis-Tris HCl buffer at pH 6.0, (ii) PBS buffer at pH 7.4, and (iii and iv) 0.15M NaCl in 50 mM Tris HCl buffer at pH 7.4 or pH 8.0. A volume of 2 mL of solution of human AAT at 1 mg/mL in PBS buffer was continuously loaded on the column at the flow rate of either 0.05 mL/min (residence time, RT: 2 min) or 0.02 mL/min (RT: 5 min). After loading, the resin was washed with 10 CVs of binding buffer at the flow rate of 0.1 mL/min. AAT elution was then performed with 20 CVs of PBS in 2 M MgCl₂ at pH 7.4 at the flow rate of 0.2 mL/min. The resin was regenerated with 10 CVs of glycine buffer at pH 2.0 at the flow rate of 0.2 mL/min. The effluents were continuously monitored by UV spectrometry at 280 nm and the resulting chromatograms were utilized to calculate the DBC_{10%} of AAT.
(§2) Evaluation of AAT-binding peptides via dynamic binding measurements. Following the equilibrium binding studies, the selected peptide-Toyopearl resins were evaluated under dynamic conditions to evaluate the interplay of kinetic factors—chiefly, the AAT transport within the chromatographic particles and the formation of AAT:peptide complexes—on the resultant binding capacity. To that end, the dynamic binding capacity at 10% breakthrough (DBC_{10%}, mg of AAT per mL of resin) of the peptide-Toyopearl resins was measured at two values of residence time (RT), namely 2 and 5 min, and four different buffer compositions, namely 20 mM Bis-Tris HCl buffer (0.15M NaCl) at pH 6.0, PBS buffer at pH 7.4, and 50 mM Tris HCl buffer (0.15M NaCl) at pH 7.4 and 8.0, and compared with that of AAT Select from Cytiva (FIG. 4; the corresponding breakthrough curves are reported in FIG. 9).

[4] = biological target: T2, Human Alpha-1 antitrypsin (AAT); test: dynamic binding capacity at 10% breakthrough, PBS pH 7.4, residence time 5 min
Procedure: as §1, §2

[5] = biological target: T2, Human Alpha-1 antitrypsin (AAT); test: dynamic binding capacity at 10% breakthrough, Tris buffer pH 7.4, residence time 2 or 5 min

T2 sequence (P01009 25-418 limits assumed): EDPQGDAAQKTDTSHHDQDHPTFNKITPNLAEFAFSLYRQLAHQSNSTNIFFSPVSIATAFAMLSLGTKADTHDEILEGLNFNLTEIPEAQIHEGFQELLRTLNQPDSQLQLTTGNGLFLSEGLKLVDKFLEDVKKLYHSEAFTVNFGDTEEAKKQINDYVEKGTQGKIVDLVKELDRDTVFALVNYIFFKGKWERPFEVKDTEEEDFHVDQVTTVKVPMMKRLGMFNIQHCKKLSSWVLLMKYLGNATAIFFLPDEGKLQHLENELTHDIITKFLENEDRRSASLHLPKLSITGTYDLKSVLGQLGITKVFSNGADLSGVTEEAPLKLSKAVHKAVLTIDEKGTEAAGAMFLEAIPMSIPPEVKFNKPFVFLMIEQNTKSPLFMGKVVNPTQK
T1 sequence (P01009 25-418): as the sequence (P01009 25-418 limits assumed) above

How did the “Qmax (mgAAT per mLR)” value [1] turn out when “SHWHWAG-Toyopearl: peptide ligand SHWHWAG conjugated on Toyopearl AF-Amino-650M resin (SHWHWAG-{Toyopearl AF‑Amino‑650M resin})” was run?
The value was 7.0 mgAAT per mLR.

For Alpha-1 Antitrypsin Select resin, which Kd [2] is on record?
Its Kd is 510 nM.

And the Qmax (mgAAT per mLR) [2]?
Its Qmax (mgAAT per mLR) is 13.5.

What about the DBC10% [3] of the same molecule?
Its DBC10% is 12.3 mg/mL.

What about the DBC10% [4] of the same molecule?
Its DBC10% is 12.8 mg/mL.

And the DBC10% [5]?
Its DBC10% is 12 mg/mL.

Which “Qmax (mgAAT per mLR)” value [1] does the source give for “NHNKIHG-Toyopearl: peptide ligand NHNKIHG conjugated on Toyopearl AF-Amino-650M resin (NHNKIHG-{Toyopearl AF‑Amino‑650M resin})” here?
The value was 6.3 mgAAT per mLR.

With “KHAWIFG-Toyopearl: peptide ligand KHAWIFG conjugated on Toyopearl AF-Amino-650M resin (KHAWIFG-{Toyopearl AF‑Amino‑650M resin})” as the molecule, how does the “Qmax (mgAAT per mLR)” value [1] read?
The value was 7.2 mgAAT per mLR.

With “KFHAWNG-Toyopearl: peptide ligand KFHAWNG conjugated on Toyopearl AF-Amino-650M resin (KFHAWNG-{Toyopearl AF‑Amino‑650M resin})” as the molecule, how does the “Qmax (mgAAT per mLR)” value [1] read?
The value was 8.9 mgAAT per mLR.

ANAKIKKKG-{Toyopearl AF‑Amino‑650M resin} (not fully specified; printed as ANAKIKKKG-Toyopearl) [ANAKIKKKG-Toyopearl] was tested. Which Kd [2] did it give?
The Kd was 6700 nM.

What about the Qmax [2] of the same molecule?
Its Qmax is 3.51 mgAAT per mLR.

Which Kd [2] does the source give for WHAKKSKFG-{Toyopearl AF‑Amino‑650M resin} (not fully specified; printed as WHAKKSKFG-Toyopearl) [WHAKKSKFG-Toyopearl] here?
Its Kd is 2090 nM.

And the Qmax [2]?
The Qmax was 12.9 mgAAT per mLR.

What about the DBC10% [3] of the same molecule?
The DBC10% was 10.3 mg/mL.

And the DBC10% [4]?
Its DBC10% is 12.7 mg/mL.

For WHAKKSHFG-{Toyopearl AF‑Amino‑650M resin} (not fully specified; printed as WHAKKSHFG-Toyopearl) [WHAKKSHFG-Toyopearl], which Kd [2] is on record?
Its Kd is 950 nM.

What about the Qmax [2] of the same molecule?
The Qmax was 16.3 mgAAT per mLR.

And the DBC10% [3]?
The DBC10% was 9.3 mg/mL.

And the DBC10% [4]?
The DBC10% was 12.5 mg/mL.

With FEKWAKAHG-{Toyopearl AF‑Amino‑650M resin} (not fully specified; printed as FEKWAKAHG-Toyopearl) [FEKWAKAHG-Toyopearl] as the molecule, how does the Kd [2] read?
Its Kd is 4670 nM.

And the Qmax [2]?
Its Qmax is 5.1 mgAAT per mLR.

Which Kd [2] does the source give for AAHFHKG-{Toyopearl AF‑Amino‑650M resin} (not fully specified; printed as AAHFHKG-Toyopearl) [AAHFHKG-Toyopearl] here?
Its Kd is 4710 nM.

And the Qmax [2]?
The Qmax was 8.7 mgAAT per mLR.

What does the source list for FSHHSWKFG-{Toyopearl AF‑Amino‑650M resin} (not fully specified; printed as FSHHSWKFG-Toyopearl) [FSHHSWKFG-Toyopearl]?
Kd [2]: 3630 nM; Qmax [2]: 9.4 mgAAT per mLR

Which results are given for KHAWIFG-{Toyopearl AF‑Amino‑650M resin} (not fully specified; printed as KHAWIFG-Toyopearl) [KHAWIFG-Toyopearl]?
Kd [2]: 1420 nM; Qmax [2]: 7.2 mgAAT per mLR

For KAWFKHWNG-{Toyopearl AF‑Amino‑650M resin} (not fully specified; printed as KAWFKHWNG-Toyopearl) [KAWFKHWNG-Toyopearl], which Kd [2] is on record?
The Kd was 870 nM.

And the Qmax [2]?
Its Qmax is 10.2 mgAAT per mLR.

Which results are given for KFHAWNG-{Toyopearl AF‑Amino‑650M resin} (not fully specified; printed as KFHAWNG-Toyopearl) [KFHAWNG-Toyopearl]?
Kd [2]: 2480 nM; Qmax [2]: 8.9 mgAAT per mLR

Which results are given for KHSKAIAAG-{Toyopearl AF‑Amino‑650M resin} (not fully specified; printed as KHSKAIAAG-Toyopearl) [KHSKAIAAG-Toyopearl]?
Kd [2]: 3620 nM; Qmax [2]: 9.1 mgAAT per mLR

For NHNKIHG-{Toyopearl AF‑Amino‑650M resin} [NHNKIHG-Toyopearl], which Kd [2] is on record?
The Kd was 2320 nM.

And the Qmax [2]?
Its Qmax is 6.3 mgAAT per mLR.

What does the source list for KWKHSHKWG-{Toyopearl AF‑Amino‑650M resin} (not fully specified; printed as KWKHSHKWG-Toyopearl) [KWKHSHKWG-Toyopearl]?
Kd [2]: 630 nM; Qmax [2]: 15.8 mgAAT per mLR; DBC10% [3]: 8.9 mg/mL; DBC10% [4]: 11.6 mg/mL

How did the Kd [2] turn out when SHWHWAG-{Toyopearl AF‑Amino‑650M resin} (not fully specified; printed as SHWHWAG-Toyopearl) [SHWHWAG-Toyopearl] was run?
The Kd was 3280 nM.

And the Qmax [2]?
Its Qmax is 7 mgAAT per mLR.
